Here are results for one substance from PMC4151172.

This test concerns the target HLA-DR1 (HLA-DRB1*01:01), soluble recombinant MHCII (human). As to the kind of experiment: fluorescence polarisation.

“HA(306-318), unlabeled influenza hemagglutinin peptide”: the IC50 came to 25 nM.
